The target in test [1] is T1, GPC3 peptide 201-230 (SEQ ID NO: 11) (human).
T1 construct: Synthetic 30-residue peptide of GPC3
T1 peptide: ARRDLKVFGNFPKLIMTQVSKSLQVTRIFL
As to the kind of experiment: peptide ELISA, peptide on plate. (ELISA stands for enzyme-linked immunosorbent assay.)

The target in test [2] is T2, GPC3 peptide 301-330 (SEQ ID NO: 16) (human).
T2 construct: Synthetic 30-residue peptide of GPC3
T2 peptide: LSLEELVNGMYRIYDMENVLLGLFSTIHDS
Nature of the test: peptide ELISA, peptide on plate.

For test [3], the target named is GPC3 core (sGPC3-His) protein (human) (UniProt P51654). As to the kind of experiment: ELISA on plate-bound sGPC3; biotin-labeled GT607, no unlabeled antibody.
Test [4] has the same target. As to the kind of experiment: competition ELISA on plate-bound sGPC3; unlabeled GT607 (100-fold) against competitor biotin-labeled GT30.
Test [5] shares this target. Nature of the test: competition ELISA on plate-bound sGPC3; unlabeled GT607 (100-fold) against competitor biotin-labeled GT607.
The target in test [6] is T3, AW5, C-terminally His-tagged recombinant product of positions 1 to 357 of GPC3 (human, UniProt P51654 25-357).
T3 construct: Expressed in CHO cells, cell pellets used in Western blot; The range is as printed and starts at position 1; also called AW5 (1-357); not shown: C-terminal His tag
As to the kind of experiment: Western blot analysis, CHO cell pellets. In general terms: Immunoblotting shows a protein as a band on a membrane.

For test [7], the target named is GPC3 core (sGPC3-His) protein (human) (UniProt P51654). Nature of the test: competition ELISA on plate-bound sGPC3; unlabeled GT607 (100-fold) against competitor biotin-labeled GT607; signal of the labeled antibody.
Test [8] shares this target. As to the kind of experiment: competition ELISA on plate-bound sGPC3; unlabeled GT607 (100-fold) against competitor biotin-labeled GT165; signal of the labeled antibody.
Test [9] has the same target. Nature of the test: competition ELISA on plate-bound sGPC3; unlabeled GT607 (100-fold) against competitor biotin-labeled GT114; signal of the labeled antibody.
Test [10] has the same target. Nature of the test: competition ELISA on plate-bound sGPC3; unlabeled GT607 (100-fold) against competitor biotin-labeled GT114.
For test [11] the target is unchanged. Nature of the test: competition ELISA on plate-bound sGPC3; unlabeled GT114 (100-fold) against competitor biotin-labeled GT114; signal of the labeled antibody.
The target is the same in test [12]. Nature of the test: competition ELISA on plate-bound sGPC3; unlabeled GT114 (100-fold) against competitor biotin-labeled GT30.
Test [13] has the same target. As to the kind of experiment: competition ELISA on plate-bound sGPC3; unlabeled GT114 (100-fold) against competitor biotin-labeled GT165.
Test [14] shares this target. As to the kind of experiment: ELISA on plate-bound sGPC3; biotin-labeled GT114, no unlabeled antibody.
Test [15] shares this target. Nature of the test: competition ELISA on plate-bound sGPC3; unlabeled GT114 (100-fold) against competitor biotin-labeled GT30; signal of the labeled antibody.
The target is the same in test [16]. Nature of the test: competition ELISA on plate-bound sGPC3; unlabeled GT114 (100-fold) against competitor biotin-labeled GT165; signal of the labeled antibody.
The target is the same in test [17]. As to the kind of experiment: competition ELISA on plate-bound sGPC3; unlabeled GT165 (100-fold) against competitor biotin-labeled GT114.
Test [18] shares this target. Nature of the test: competition ELISA on plate-bound sGPC3; unlabeled GT165 (100-fold) against competitor biotin-labeled GT165.
Test [19] shares this target. As to the kind of experiment: competition ELISA on plate-bound sGPC3; unlabeled GT165 (100-fold) against competitor biotin-labeled GT165; signal of the labeled antibody.
The target is the same in test [20]. As to the kind of experiment: competition ELISA on plate-bound sGPC3; unlabeled GT165 (100-fold) against competitor biotin-labeled GT30.
For test [21] the target is unchanged. As to the kind of experiment: competition ELISA on plate-bound sGPC3; unlabeled GT165 (100-fold) against competitor biotin-labeled GT114; signal of the labeled antibody.
The target is the same in test [22]. Nature of the test: competition ELISA on plate-bound sGPC3; unlabeled GT165 (100-fold) against competitor biotin-labeled GT30; signal of the labeled antibody.
The target in test [23] is T3, AW5, C-terminally His-tagged …. As to the kind of experiment: Western blot, pellets of CHO cells expressing the product.
For test [24], the target named is GPC3 core (sGPC3-His) protein (human) (UniProt P51654). Nature of the test: competition ELISA on plate-bound sGPC3; unlabeled GT165 (100-fold) against competitor biotin-labeled GT607; signal of the labeled antibody.
Test [25] shares this target. Nature of the test: competition ELISA on plate-bound sGPC3; unlabeled GT165 (100-fold) against competitor biotin-labeled GT607.
Test [26] has the same target. As to the kind of experiment: ELISA on plate-bound sGPC3; biotin-labeled GT165, no unlabeled antibody.

Sequence of GPC3 core (sGPC3-His) protein (human) (P51654 25-563 S495A/S509A): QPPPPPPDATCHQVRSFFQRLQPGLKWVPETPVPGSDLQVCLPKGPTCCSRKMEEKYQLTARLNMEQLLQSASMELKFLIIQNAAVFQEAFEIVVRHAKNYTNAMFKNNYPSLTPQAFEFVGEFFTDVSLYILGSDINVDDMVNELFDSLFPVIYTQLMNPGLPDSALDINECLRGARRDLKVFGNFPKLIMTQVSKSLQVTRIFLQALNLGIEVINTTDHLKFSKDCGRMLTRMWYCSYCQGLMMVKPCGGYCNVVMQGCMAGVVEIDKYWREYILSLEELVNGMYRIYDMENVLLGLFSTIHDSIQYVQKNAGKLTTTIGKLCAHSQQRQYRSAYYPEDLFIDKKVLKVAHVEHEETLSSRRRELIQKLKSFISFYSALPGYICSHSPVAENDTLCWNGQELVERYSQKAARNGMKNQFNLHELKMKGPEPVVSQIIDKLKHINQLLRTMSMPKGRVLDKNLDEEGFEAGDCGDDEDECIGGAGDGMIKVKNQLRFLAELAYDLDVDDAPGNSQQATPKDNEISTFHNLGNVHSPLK
T3 sequence (P51654 25-357): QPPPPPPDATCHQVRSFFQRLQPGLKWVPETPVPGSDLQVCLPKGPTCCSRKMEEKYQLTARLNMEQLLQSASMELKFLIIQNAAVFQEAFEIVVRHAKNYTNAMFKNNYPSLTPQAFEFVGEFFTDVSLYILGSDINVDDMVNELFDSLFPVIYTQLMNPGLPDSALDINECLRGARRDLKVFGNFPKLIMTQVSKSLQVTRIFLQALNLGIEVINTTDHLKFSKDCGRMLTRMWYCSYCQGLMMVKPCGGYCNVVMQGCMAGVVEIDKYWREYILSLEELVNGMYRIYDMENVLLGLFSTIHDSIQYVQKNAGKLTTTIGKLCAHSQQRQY

B1: GT607 antibody (antibody, IgG1, V domains shown)
VH: EVQLVESGGDVVRPGGSLKLSCAASGFTFSSYGMSWVRQLPDKRLEWVASVGNGGSYRYYPENLKGRFTISRDNTKNTLYLQISGLKSEDTAIYYCARRGAFPYFDVWGAGTTVTVSS
VL: QIVLTQSPAIMSASPGEKVTLACSASSSVTYMHWYQQKSGTSPKRWIYETSKLASGVPPRFSGSGSGTSYSLTISTMEAEDAATYYCQQWSSNPLTFGAGTKLELKR
Regarding B1, the results for the binding result in test [1], in test [2] and in [6] were “no binding (tested: 2 µg/mL)”, “no binding (tested: 2 µg/mL)” and “binds”, respectively. Besides, the O.D. 450 was determined as 2.18 O.D. 450 in [3], 0.135 O.D. 450 in [7], 0.129 O.D. 450 in [8] and 1.13 O.D. 450 in [9]. Moreover, the Inhibitory effect (%) was below 0% in test [4], 94% in [5] and 51% in [10].

B2: GT114 antibody (antibody, IgG1, V domains shown)
VH: DVQLQESGPGLVKPSQSLSLTCTVTGYSITSDSAWNWIRQFPGNKLEWMAYIMYSGITSYNPSLKSRISITRDTAKNQFFLQLNSVTTEDSATYYCSRGYWYFDVWGAGTTVTVSS
VL: QIVLTQSPAIMSASLGEEITLTCSASSSVSYMHWYQQKSGTSPKLLIYSTSILASGVPSRFSGSGSGTFYSLTISSVEAEDAADYYCLQWITYRTFGGGTKLEIKR
As for B2, the O.D. 450 was determined as 0.251 O.D. 450 in test [11], 2.3 O.D. 450 in [14], 2.14 O.D. 450 in [15] and 1.82 O.D. 450 in test [16]. In addition, the binding result in test [1] was “no binding (tested: 2 µg/mL)”; in [2], “no binding (tested: 2 µg/mL)”; in [6], “binds”. The Inhibitory effect (%) in [12] and in test [13] was below 0% throughout.

B3: GT165 antibody (antibody, IgG1, V domains shown)
VH: QVQLQQSGAELVGPGASVKISCKAFGYTFTNHHINWVKQRPGQGLDWIGYINPYNDYTNYNQKFKGKATLTVDKSSSTAYMELSSLTSEDSAVYYCARSDPAWFAYWGQGTLVTVSA
VL: DIQMTQSPSSLSASLGGKVTITCKASQDINKNIAWYQHKPGKGPRLLIWYTYTLQPGIPSRFSGSGSGRDYSFSISNLEPEDIATYYCLQYDNLPFTFGTGTKLEIKR
As for B3, the Inhibitory effect (%) stood at 1% in test [17], 93% in [18], 54% in test [20] and 43% in test [25]. Further, the figures for the binding result in [1], in test [2] and in test [23] were “no binding (tested: 2 µg/mL)”, “no binding (tested: 2 µg/mL)” and “no binding”, respectively. For the same molecule, the O.D. 450 amounted to 0.111 O.D. 450 in test [19]; 2.28 O.D. 450 in [21]; 0.846 O.D. 450 in [22]; 1.25 O.D. 450 in test [24]; 1.68 O.D. 450 in test [26].

(Values after EP3088890B1 (Chugai Seiyaku Kabushiki Kaisha, dated 2020).)
